Reference: PMC4155688, “Mapping the Putative G Protein-coupled Receptor (GPCR) Docking Site on GPCR Kinase 2” (The Journal of Biological Chemistry, 2014)

B1: RlucII-GRK2 (wild type) [human] / α2AAR-GFP^2 [not stated] (parent)
chain 1: MADLEAVLADVSYLMAMEKSKATPAARASKKILLPEPSIRSVMQKYLEDRGEVTFEKIFSQKLGYLLFRDFCLNHLEEARPLVEFYEEIKKYEKLETEEERVARSREIFDSYIMKELLACSHPFSKSATEHVQGHLGKKQVPPDLFQPYIEEICQNLRGDVFQKFIESDKFTRFCQWKNVELNIHLTMNDFSVHRIIGRGGFGEVYGCRKADTGKMYAMKCLDKKRIKMKQGETLALNERIMLSLVSTGDCPFIVCMSYAFHTPDKLSFILDLMNGGDLHYHLSQHGVFSEADMRFYAAEIILGLEHMHNRFVVYRDLKPANILLDEHGHVRISDLGLACDFSKKKPHASVGTHGYMAPEVLQKGVAYDSSADWFSLGCMLFKLLRGHSPFRQHKTKDKHEIDRMTLTMAVELPDSFSPELRSLLEGLLQRDVNRRLGCLGRGAQEVKESPFFRSLDWQMVFLQKYPPPLIPPRGEVNAADAFDIGSFDEEDTKGIKLLDSDQELYRNFPLTISERWQQEVAETVFDTINAETDRLEARKKAKNKQLGHEEDYALGKDCIMHGYMSKMGNPFLTQWQRRYFYLFPNRLEWRGEGEAPQSLLTMEEIQSVEETQIKERKCLLLKIRGGKQFILQCDSDPELVQWKKELRDAYREAQQLVQRVPKMKNKPRSPVVELSKVPLVQRGSANGL
chain 2: MFRQEQPLAEGSFAPMGSLQPDAGNASWNGTEAPGGGARATPYSLQVTLTLVCLAGLLMLLTVFGNVLVIIAVFTSRALKAPQNLFLVSLASADILVATLVIPFSLANEVMGYWYFGKAWCEIYLALDVLFCTSSIVHLCAISLDRYWSITQAIEYNLKRTPRRIKAIIITVWVISAVISFPPLISIEKKGGGGGPQPAEPRCEINDQKWYVISSCIGSFFAPCLIMILVYVRIYQIAKRRTRVPPSRRGPDAVAAPPGGTERRPNGLGPERSAGPGGAEAEPLPTQLNGAPGEPAPAGPRDTDALDLEESSSSDHAERPPGPRRPERGPRGKGKARASQVKPGDSLPRRGPGATGIGTPAAGPGEERVGAAKASRWRGRQNREKRFTFVLAVVIGVFVVCWFPFFFTYTLTAVGCSVPRTLFKFFFWFGYCNSSLNPVIYTIFNHDFRRAFKKILCRGDRKRIV

Variants of: B1
Test: BRET
Details: with α2AAR-GFP^2; HEK293T cells; 100 μm NOR for 6 min; read off a plot

| response | Variant |
| --- | --- |
| 0.059 | chain 1 A482I |
| 0.018 | chain 1 I485A |
| 0.032 | chain 1 K220R |
| 0.05 | chain 1 E18A |
| 0.041 | chain 1 D10R |
| 0.016 | chain 1 G475I |

The remaining lines, values behind:

| Variant | response |
| --- | --- |
| chain 1 M15A | 0.027 |
| chain 1 D481A | 0.049 |
| chain 1 P473E | 0.033 |
| chain 1 D3A | 0.026 |
| chain 1 D10A | 0.026 |

Variants of: B1
Test: BRET dose-response
Details: with α2AAR-GFP^2; HEK293T cells; point at highest NOR concentration, log [NOR] = -3; read off a plot

| response | Variant |
| --- | --- |
| 0.031 | chain 1 K220R |
